Test results from patent publication US20100209939A1.

Experiments:
[1] = biological target: human BNP(1-32), synthetic peptide (Sigma-Aldrich #B-5900) (human); assay: sandwich ELISA, L21016 capture; BNP(1-32) 625 pg/ml
[2] = biological target: human BNP(1-32), synthetic peptide (Sigma-Aldrich #B-5900) (human); assay: sandwich ELISA, L21016 capture; BNP(1-32) 78 pg/ml
[3] = biological target: human proBNP(1-108), recombinant protein produced in E. coli (HyTest), non-glycosylated (human) (UniProt P16860); assay: sandwich ELISA, hinge 76 capture, HRP-mAb; proBNP(1-108) 10,000 pg/ml
Sequence of human proBNP(1-108), recombinant protein produced in E. coli (HyTest), non-glycosylated (human) (P16860 27-134): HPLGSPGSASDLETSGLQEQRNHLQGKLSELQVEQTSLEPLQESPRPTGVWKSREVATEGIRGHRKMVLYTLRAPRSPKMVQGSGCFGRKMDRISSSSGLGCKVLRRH

[4] = biological target: human proBNP(1-108), recombinant protein produced in E. coli (HyTest), non-glycosylated (human) (UniProt P16860); assay: sandwich ELISA, hinge 76 capture, HRP-mAb; proBNP(1-108) 312.5 pg/ml
[5] = biological target: human BNP(1-32), synthetic peptide (Sigma-Aldrich #B-5900) (human); assay: sandwich ELISA, L21016 capture; BNP(1-32) 5,000 pg/ml
[6] = biological target: human BNP(1-32), synthetic peptide (Sigma-Aldrich #B-5900) (human); assay: sandwich ELISA, L21016 capture; BNP(1-32) 10,000 pg/ml
[7] = biological target: human proBNP(1-108), recombinant protein produced in E. coli (HyTest), non-glycosylated (human) (UniProt P16860); assay: sandwich ELISA, hinge 76 capture, HRP-mAb; proBNP(1-108) 5,000 pg/ml
[8] = biological target: human proBNP(1-108), recombinant protein produced in E. coli (HyTest), non-glycosylated (human) (UniProt P16860); assay: sandwich ELISA, hinge 76 capture, HRP-mAb; proBNP(1-108) 156.25 pg/ml
[9] = biological target: human proBNP(1-108), recombinant protein produced in E. coli (HyTest), non-glycosylated (human) (UniProt P16860); assay: sandwich ELISA, hinge 76 capture, HRP-mAb; proBNP(1-108) 2,500 pg/ml
[10] = biological target: human BNP(1-32), synthetic peptide (Sigma-Aldrich #B-5900) (human); assay: sandwich ELISA, L21016 capture; BNP(1-32) 156.25 pg/ml
[11] = biological target: human proBNP(1-108), recombinant protein produced in E. coli (HyTest), non-glycosylated (human) (UniProt P16860); assay: sandwich ELISA, hinge 76 capture, HRP-mAb; proBNP(1-108) 1,250 pg/ml
[12] = biological target: human proBNP(1-108), recombinant protein produced in E. coli (HyTest), non-glycosylated (human) (UniProt P16860); assay: sandwich ELISA, hinge 76 capture, HRP-mAb; proBNP(1-108) 78 pg/ml
[13] = biological target: human BNP(1-32), synthetic peptide (Sigma-Aldrich #B-5900) (human); assay: sandwich ELISA, L21016 capture; BNP(1-32) 312.5 pg/ml
[14] = biological target: human proBNP(1-108), recombinant protein produced in E. coli (HyTest), non-glycosylated (human) (UniProt P16860); assay: sandwich ELISA, hinge 76 capture, HRP-mAb; proBNP(1-108) 0 pg/ml (blank)
[15] = biological target: human proBNP(1-108), recombinant protein produced in E. coli (HyTest), non-glycosylated (human) (UniProt P16860); assay: sandwich ELISA, hinge 76 capture, HRP-mAb; proBNP(1-108) 625 pg/ml
[16] = biological target: human BNP(1-32), synthetic peptide (Sigma-Aldrich #B-5900) (human); assay: sandwich ELISA, L21016 capture; BNP(1-32) 0 pg/ml (blank)
[17] = biological target: human BNP(1-32), synthetic peptide (Sigma-Aldrich #B-5900) (human); assay: sandwich ELISA, L21016 capture; BNP(1-32) 39 pg/ml
[18] = biological target: human BNP(1-32), synthetic peptide (Sigma-Aldrich #B-5900) (human); assay: sandwich ELISA, L21016 capture; BNP(1-32) 1,250 pg/ml
[19] = biological target: human BNP(1-32), synthetic peptide (Sigma-Aldrich #B-5900) (human); assay: sandwich ELISA, L21016 capture; BNP(1-32) 2,500 pg/ml
[20] = biological target: human BNP(1-32), synthetic peptide (Sigma-Aldrich #B-5900) (human); assay: sandwich ELISA, L21016 capture; BNP(1-32) 20 pg/ml
[21] = biological target: human proBNP(1-108), recombinant protein produced in E. coli (HyTest), non-glycosylated (human) (UniProt P16860); assay: sandwich ELISA, hinge 76 capture, HRP-mAb; proBNP(1-108) 39 pg/ml
[22] = biological target: human proBNP(1-108), recombinant protein produced in E. coli (HyTest), non-glycosylated (human) (UniProt P16860); assay: sandwich ELISA, hinge 76 capture, HRP-mAb; proBNP(1-108) 20 pg/ml
[23] = biological target: human BNP(1-32), synthetic peptide (Sigma-Aldrich #B-5900) (human); assay: sandwich ELISA, L21016 capture, BNP(1-32) 5 ng/ml; 50B7 0.5 µg/ml alone, no 20G7
[24] = biological target: human proBNP(1-108), recombinant protein produced in E. coli (HyTest), non-glycosylated (human) (UniProt P16860); assay: SPR ProteOn XPR36, mAb captured by anti-Fc, soluble antigen 13-200 nM
[25] = biological target: glycosylated human proBNP(1-108), recombinant protein from HEK293 cells (HyTest) (human) (UniProt P16860); assay: as above
Sequence of glycosylated human proBNP(1-108), recombinant protein from HEK293 cells (HyTest) (human) (P16860 27-134): as above

[26] = biological target: 24C5 monoclonal antibody (HyTest); assay: competition ELISA: BNP(1-32) immobilised at 0.5 µg/ml, 24C5 at 0.5 µg/ml mixed with the soluble peptide, anti-mouse IgG-peroxidase; % inhibition of the binding of 24C5 to BNP(1-32)

Sequence of human BNP(1-32), synthetic peptide (Sigma-Aldrich #B-5900) (human) (peptide, as listed by the source): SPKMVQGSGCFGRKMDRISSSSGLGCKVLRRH

| Molecule | OD 490 nm [1] [OD] | OD 490 nm [2] [OD] | OD [3] [OD] | OD [4] [OD] | OD 490 nm [5] [OD] | OD 490 nm [6] [OD] | OD [7] [OD] | OD [8] [OD] | OD [9] [OD] | OD 490 nm [10] [OD] | OD [11] [OD] | OD [12] [OD] | OD 490 nm [13] [OD] | OD [14] [OD] | OD [15] [OD] | OD 490 nm [16] [OD] | OD 490 nm [17] [OD] | OD 490 nm [18] [OD] | OD 490 nm [19] [OD] | OD 490 nm [20] [OD] | also measured |
| --- | --- | --- | --- | --- | --- | --- | --- | --- | --- | --- | --- | --- | --- | --- | --- | --- | --- | --- | --- | --- | --- |
| 50B7 monoclonal antibody (HyTest) |  |  |  |  |  |  |  |  |  |  |  |  |  |  |  |  |  |  |  |  | OD 490 nm [23]: 1.3 OD |
| hinge 76 monoclonal antibody (Bio-Rad) |  |  |  |  |  |  |  |  |  |  |  |  |  |  |  |  |  |  |  |  | Kd [24]: 0.173 nM; koff [24]: 0.000194 s⁻¹; kon [24]: 1.12e+06 M⁻¹ s⁻¹; Kd [25]: 23.5 nM; koff [25]: 0.00272 s⁻¹; kon [25]: 117000 M⁻¹ s⁻¹ |
| AGRKMDR [mutated epitope peptide A11GRKMDR17 (SEQ ID NO: 62)] |  |  |  |  |  |  |  |  |  |  |  |  |  |  |  |  |  |  |  |  | IC50 (read off the curve) [26]: 2 µg/mL |

More lines, main results first:

| OD 490 nm [1] [OD] | OD 490 nm [2] [OD] | OD [3] [OD] | OD [4] [OD] | OD 490 nm [5] [OD] | OD 490 nm [6] [OD] | OD [7] [OD] | OD [8] [OD] | OD [9] [OD] | OD 490 nm [10] [OD] | OD [11] [OD] | OD [12] [OD] | OD 490 nm [13] [OD] | OD [14] [OD] | OD [15] [OD] | OD 490 nm [16] [OD] | OD 490 nm [17] [OD] | OD 490 nm [18] [OD] | OD 490 nm [19] [OD] | OD 490 nm [20] [OD] | Molecule | also measured |
| --- | --- | --- | --- | --- | --- | --- | --- | --- | --- | --- | --- | --- | --- | --- | --- | --- | --- | --- | --- | --- | --- |
| 0.059 | 0.052 | 0.22 | 0.035 | 0.068 | 0.077 | 0.117 | 0.055 | 0.069 | 0.071 | 0.068 | 0.056 | 0.063 | 0.044 | 0.07 | 0.071 | 0.055 | 0.056 | 0.067 | 0.068 | 24C5 monoclonal antibody (HyTest) | OD [21]: 0.056 OD; OD [22]: 0.052 OD |
| 0.029 | 0.055 | 0.158 | 0.028 | 0.041 | 0.048 | 0.041 | 0.027 | 0.031 | 0.032 | 0.024 | 0.033 | 0.027 | 0.024 | 0.024 | 0.022 | 0.032 | 0.031 | 0.035 | 0.034 | 26E2 monoclonal antibody (HyTest) | OD [21]: 0.028 OD; OD [22]: 0.028 OD |
